System: Saccharomyces cerevisiae PS128 hsf1 delta, HSF1(1-493) fusion
Test: growth estimate (transactivation domain function in HSF1 fusion, heat-shock survival) (a.u. (slope of normalised read count over time)); higher = stronger growth at 37°C, i.e. more transactivation activity
Conditions: library: design library
Summary of the method: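 The growth estimate is the slope, from a robust linear fit over time, of read counts scaled to sample totals and starting count. These counts came from Illumina MiSeq sequencing of PCR-amplified inserts, run as six barcoded replicates of one experiment. The inserts encoded designed transactivation-domain oligos fused to yeast HSF1 (amino acids 1–493) in an hsf1-deleted strain, replica-plated on –trp 5-FOA plates and incubated at 30°C or 37°C for 0, 2, 4, 6 and 8 days.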

In the case of DRDLDMLGDFDLDMLG, the growth estimate is reported as 0.301.
For DRLSWIIELLEKDG, the growth estimate was < -0.25.
With EADDEFSLWDSML the growth estimate was 0.306.
For EANDLLDLDFILSN, the growth estimate was 0.0838.
With EDADEFSLWDSML the growth estimate was 0.354.
For EDAYSILWSDVY, the growth estimate was -0.234.
With EDDAEFSLWDSML the growth estimate was 0.0227.
With EDDDAFSLWDSML the growth estimate was 0.237.
In the case of EDDDEASLWDSML, the growth estimate is reported as < -0.25.
Sequence EDDDEFALWDSML has a growth estimate of 0.128.
EDDDEFGLWDSML showed a growth estimate of 0.402.
Sequence EDDDEFKLWDSML has a growth estimate of 0.0998.
With EDDDEFPLWDSML the growth estimate was 0.199.
With EDDDEFRLWDSML the growth estimate was -0.0562.
In the case of EDDDEFSAWDSML, the growth estimate is reported as -0.0271.
With EDDDEFSGWDSML the growth estimate was 0.0815.
With EDDDEFSKWDSML the growth estimate was -0.228.
Sequence EDDDEFSLADSML has a growth estimate of -0.236.
In the case of EDDDEFSLGDSML, the growth estimate is reported as < -0.25.
With EDDDEFSLKDSML the growth estimate was < -0.25.
EDDDEFSLPDSML showed a growth estimate of -0.126.
For EDDDEFSLRDSML, the growth estimate was -0.248.
Sequence EDDDEFSLWASML has a growth estimate of 2.21.
Work on EDDDEFSLWDGML yielded a growth estimate of 0.875.
In the case of EDDDEFSLWDKML, the growth estimate is reported as -0.201.
In the case of EDDDEFSLWDPML, the growth estimate is reported as 3.13.
EDDDEFSLWDRML showed a growth estimate of -0.15.
In the case of EDDDEFSLWDSAL, the growth estimate is reported as < -0.25.
EDDDEFSLWDSGL was tested, and the growth estimate was -0.19.
In the case of EDDDEFSLWDSKL, the growth estimate is reported as < -0.25.
In the case of EDDDEFSLWDSMA, the growth estimate is reported as -0.238.
With EDDDEFSLWDSMG the growth estimate was -0.226.
For EDDDEFSLWDSMK, the growth estimate was < -0.25.
With EDDDEFSLWDSML the growth estimate was 1.95.
In the case of EDDDEFSLWDSMP, the growth estimate is reported as -0.236.
Work on EDDDEFSLWDSMR yielded a growth estimate of -0.239.
In the case of EDDDEFSLWDSPL, the growth estimate is reported as 0.011.
Sequence EDDDEFSLWGSML has a growth estimate of 1.19.
In the case of EDDDEFSLWKSML, the growth estimate is reported as < -0.25.
In the case of EDDDEFSLWPSML, the growth estimate is reported as -0.166.
EDDDEFSLWRSML was tested, and the growth estimate was -0.116.
EDDDEFSPWDSML was tested, and the growth estimate was -0.228.
EDDDEFSRWDSML was tested, and the growth estimate was -0.0194.
EDDDEGSLWDSML was tested, and the growth estimate was < -0.25.
EDDDEKSLWDSML gave a growth estimate of -0.0523.
EDDDEPSLWDSML was tested, and the growth estimate was 0.0815.
For EDDDERSLWDSML, the growth estimate was < -0.25.
With EDDDGFSLWDSML the growth estimate was 0.241.
EDDDPFSLWDSML was tested, and the growth estimate was 2.41.
EDDDRFSLWDSML was tested, and the growth estimate was -0.141.
EDDGEFSLWDSML showed a growth estimate of 0.47.
With EDDKEFSLWDSML the growth estimate was -0.135.
EDDPEFSLWDSML gave a growth estimate of 1.77.
EDDREFSLWDSML was tested, and the growth estimate was -0.175.
EDGDEFSLWDSML was tested, and the growth estimate was 0.533.
EDGYSILWSDVY gave a growth estimate of -0.236.
Work on EDKDEFSLWDSML yielded a growth estimate of -0.0707.
EDLASILWSDVY showed a growth estimate of -0.161.
Sequence EDLGSILWSDVY has a growth estimate of -0.0522.
In the case of EDLKSILWSDVY, the growth estimate is reported as < -0.25.
In the case of EDLPSILWSDVY, the growth estimate is reported as < -0.25.
EDLRSILWSDVY was tested, and the growth estimate was < -0.25.
In the case of EDLYAILWSDVY, the growth estimate is reported as -0.11.
Work on EDLYGILWSDVY yielded a growth estimate of 0.0695.
EDLYKILWSDVY showed a growth estimate of -0.0738.
EDLYPILWSDVY was tested, and the growth estimate was < -0.25.
For EDLYSALWSDVY, the growth estimate was 0.125.
For EDLYSGLWSDVY, the growth estimate was -0.186.
With EDLYSIAWSDVY the growth estimate was < -0.25.
EDLYSIGWSDVY was tested, and the growth estimate was -0.212.
With EDLYSIKWSDVY the growth estimate was -0.245.
Work on EDLYSILASDVY yielded a growth estimate of -0.238.
With EDLYSILGSDVY the growth estimate was < -0.25.
EDLYSILKSDVY was tested, and the growth estimate was < -0.25.
Work on EDLYSILWADVY yielded a growth estimate of -0.181.
Sequence EDLYSILWGDVY has a growth estimate of -0.152.
With EDLYSILWKDVY the growth estimate was < -0.25.
EDLYSILWPDVY gave a growth estimate of 1.01.
EDLYSILWRDVY was tested, and the growth estimate was -0.193.
EDLYSILWSAVY showed a growth estimate of -0.107.
Sequence EDLYSILWSDAY has a growth estimate of 0.452.
Sequence EDLYSILWSDGY has a growth estimate of 0.303.
Sequence EDLYSILWSDKY has a growth estimate of -0.125.
Sequence EDLYSILWSDRY has a growth estimate of -0.0848.
EDLYSILWSDVA showed a growth estimate of 0.126.
EDLYSILWSDVG was tested, and the growth estimate was -0.0353.
In the case of EDLYSILWSDVK, the growth estimate is reported as 0.0539.
EDLYSILWSDVP was tested, and the growth estimate was 0.204.
For EDLYSILWSDVY, the growth estimate was 0.971.
In the case of EDLYSILWSGVY, the growth estimate is reported as -0.0514.
With EDLYSILWSPVY the growth estimate was -0.241.
In the case of EDLYSILWSRVY, the growth estimate is reported as -0.0908.
EDLYSIPWSDVY showed a growth estimate of -0.196.
EDLYSIRWSDVY showed a growth estimate of -0.219.
For EDLYSPLWSDVY, the growth estimate was < -0.25.
Work on EDPDEFSLWDSML yielded a growth estimate of 1.36.
EDPYSILWSDVY gave a growth estimate of 0.731.
Work on EDRDEFSLWDSML yielded a growth estimate of 0.0908.
EDRYSILWSDVY gave a growth estimate of -0.176.
In the case of EFADLLDLDFILSN, the growth estimate is reported as 0.75.
EFGDLLDLDFILSN showed a growth estimate of 0.032.
With EFKDLLDLDFILSN the growth estimate was 0.512.
For EFNDGLDLDFILSN, the growth estimate was -0.0825.
In the case of EFNDKLDLDFILSN, the growth estimate is reported as < -0.25.
EFNDLADLDFILSN was tested, and the growth estimate was 0.121.
Work on EFNDLGDLDFILSN yielded a growth estimate of -0.0268.
With EFNDLLALDFILSN the growth estimate was -0.112.
EFNDLLDKDFILSN gave a growth estimate of -0.227.
In the case of EFNDLLDLAFILSN, the growth estimate is reported as -0.217.
EFNDLLDLDAILSN gave a growth estimate of 0.353.
For EFNDLLDLDFALSN, the growth estimate was 3.84.
Sequence EFNDLLDLDFGLSN has a growth estimate of 4.29.
For EFNDLLDLDFIASN, the growth estimate was 0.58.
EFNDLLDLDFIGSN was tested, and the growth estimate was 2.81.
Work on EFNDLLDLDFIKSN yielded a growth estimate of -0.165.
For EFNDLLDLDFILAN, the growth estimate was < -0.25.
For EFNDLLDLDFILGN, the growth estimate was 4.09.
Sequence EFNDLLDLDFILKN has a growth estimate of 2.1.
In the case of EFNDLLDLDFILPN, the growth estimate is reported as 10.7.
Sequence EFNDLLDLDFILRN has a growth estimate of 5.09.
EFNDLLDLDFILSA showed a growth estimate of -0.12.
EFNDLLDLDFILSG gave a growth estimate of 1.41.
Sequence EFNDLLDLDFILSK has a growth estimate of 0.632.
With EFNDLLDLDFILSN the growth estimate was 1.51.
EFNDLLDLDFILSP was tested, and the growth estimate was -0.228.
EFNDLLDLDFILSR was tested, and the growth estimate was 0.761.
In the case of EFNDLLDLDFIPSN, the growth estimate is reported as 0.874.
EFNDLLDLDFIRSN was tested, and the growth estimate was -0.0675.
EFNDLLDLDFKLSN showed a growth estimate of -0.099.
EFNDLLDLDFPLSN was tested, and the growth estimate was 1.64.
For EFNDLLDLDFRLSN, the growth estimate was 0.0126.
In the case of EFNDLLDLDKILSN, the growth estimate is reported as -0.21.
For EFNDLLDLDPILSN, the growth estimate was -0.247.
EFNDLLDLDRILSN gave a growth estimate of 0.151.
EFNDLLDLGFILSN gave a growth estimate of -0.244.
Sequence EFNDLLDLKFILSN has a growth estimate of -0.169.
With EFNDLLDLRFILSN the growth estimate was < -0.25.
For EFNDLLDPDFILSN, the growth estimate was -0.0736.
EFNDLLDRDFILSN gave a growth estimate of -0.0427.
With EFNDLLGLDFILSN the growth estimate was < -0.25.
Work on EFNDLLKLDFILSN yielded a growth estimate of -0.0935.
For EFNDLLPLDFILSN, the growth estimate was < -0.25.
EFNDLLRLDFILSN was tested, and the growth estimate was < -0.253.
For EFNDLPDLDFILSN, the growth estimate was -0.195.
For EFNDLRDLDFILSN, the growth estimate was -0.248.
Work on EFNDPLDLDFILSN yielded a growth estimate of -0.119.
For EFNDRLDLDFILSN, the growth estimate was -0.246.
For EFNGLLDLDFILSN, the growth estimate was -0.173.
In the case of EFNKLLDLDFILSN, the growth estimate is reported as < -0.25.
For EFNPLLDLDFILSN, the growth estimate was < -0.25.
For EFNRLLDLDFILSN, the growth estimate was < -0.25.

From the supplement of paper PMC5949888
